Source: PMC8111768

Experiments:
[1] = target: VIC16 REFORMab SDIEALGA (G236A/S239D/A330L/I332E) (mouse | human); assay: SPR; settings: remark: other sources report otherwise
[2] = target: VIC16 REFORMab KWES (printed K236W/E333S) (mouse | human); assay: SPR; settings: remark: other sources report otherwise
[3] = target: T1, VIC16 human IgG1 (wild type VIC16-human IgG1 REFORMab) (mouse | human); assay: SPR; settings: remark: other sources report otherwise
[4] = target: VIC16 REFORMab EFTEA (G236A/S267E/H268F/S324T/I332E) (mouse | human); assay: SPR; settings: remark: other sources report otherwise
[5] = target: VIC16 human IgG1 (wild type VIC16-human IgG1 REFORMab) (mouse | human); assay: BLI
[6] = target: T1, VIC16 human IgG1 (wild type VIC16-human …); assay: BLI; remark: listed apart in the source

Binder | Kd [3] | Kd [6] | other results
recombinant human FcγR2B, P31994 43-310 (receptor, here or on the partner: soluble ectodomain by convention (UniProt topology); tag not stated) TPAAPPKAVLKLEPQWINVLQEDSVTLTCRGTHSPESDSIQWFHNGNLIPTHTQPSYRFKANNNDSGEYTCQTGQTSLSDPVHLTVLSEWLVLQTPHLEFQEGETIVLRCHSWKDKPLVKVTFFQNGKSKKFSRSDPNFSIPQANHSHSGDYHCTGNIGYTLYSSKPVTITVQAP | 23 µM | – | Kd [1]: 21 µM; Kd [2]: 224 µM; Kd [4]: 1.2 µM
recombinant human FcγR2A, P12318 34-317 (receptor, modifications not checked) QAAAPPKAVLKLEPPWINVLQEDSVTLTCQGARSPESDSIQWFHNGNLIPTHTQPSYRFKANNNDSGEYTCQTGQTSLSDPVHLTVLSEWLVLQTPHLEFQEGETIMLRCHSWKDKPLVKVTFFQNGKSQKFSHLDPTFSIPQANHSHSGDYHCTGNIGYTLFSSKPVTITVQVPSMGSSSPMG | 30 µM | – | –
recombinant murine FcγRI (receptor) EVVNATKAVITLQPPWVSIFQKENVTLWCEGPHLPGDSSTQWFINGTAVQISTPSYSIPEASFQDSGEYRCQIGSSMPSDPVQLQIHNDWLLLQASRRVLTEGEPLALRCHGWKNKLVYNVVFYRNGKSFQFSSDSEVAILKTNLSHSGIYHCSGTGRHRYTSAGVSITVKELFTTPVLRASVSSPFPEGSLVTLNCETNLLLQRPGLQLHFSFYVGSKILEYRNTSSEYHIARAEREDAGFYWCEVATEDSSVLKRSPELELQVLGPQSSAP | – | – | Kd [5]: 0.08 µM
recombinant murine FcγRIV, A0A0B4J1G0 21-249 (receptor, modifications not checked) GLQKAVVNLDPKWVRVLEEDSVTLRCQGTFSPEDNSIKWFHNESLIPHQDANYVIQSARVKDSGMYRCQTALSTISDPVQLEVHMGWLLLQTTKWLFQEGDPIHLRCHSWQNRPVRKVTYLQNGKGKKYFHENSELLIPKATHNDSGSYFCRGLIGHNNKSSASFRISLGDPGSPSMFPPWHQ | – | 0.24 µM | –
recombinant murine FcγRIII, P08508 31-261 (receptor, modifications not checked) ALPKAVVKLDPPWIQVLKEDMVTLMCEGTHNPGNSSTQWFHNGRSIRSQVQASYTFKATVNDSGEYRCQMEQTRLSDPVDLGVISDWLLLQTPQRVFLEGETITLRCHSWRNKLLNRISFFHNEKSVRYHHYKSNFSIPKANHSHSGDYYCKGSLGSTQHQSKPVTITVQDPATTSSISLVWYHT | – | 2.83 µM | –
recombinant murine FcγRIIb, P08101 30-330 (receptor, modifications not checked) THDLPKAVVKLEPPWIQVLKEDTVTLTCEGTHNPGNSSTQWFHNGRSIRSQVQASYTFKATVNDSGEYRCQMEQTRLSDPVDLGVISDWLLLQTPQLVFLEGETITLRCHSWRNKLLNRISFFHNEKSVRYHHYSSNFSIPKANHSHSGDYYCKGSLGRTLHQSKPVTITVQGPKSSRSLP | – | 14.9 µM | –
